Article PMC5731645 (Neuron, 2017)
Read-outs that look alike come from different tables or passages of the source.

T1: DISC1 765–852 (mouse, UniProt Q811T9-1 765-852)
T1 sequence (looked up): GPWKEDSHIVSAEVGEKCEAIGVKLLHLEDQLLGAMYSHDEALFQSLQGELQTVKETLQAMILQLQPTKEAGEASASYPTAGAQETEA

T2: trx-Ndel1 CT-CC (mouse, UniProt Q9ERR1-1 238-284)
T2 chain (looked up): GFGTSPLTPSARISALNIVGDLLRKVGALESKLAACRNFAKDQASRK

B1: full-length Ndel1 (natural protein, mouse, UniProt Q9ERR1-1 1-345, looked up)
chain: MDGEDIPDFSSLKEETAYWKELSLKYKQSFQEARDELVEFQEGSRELEAELEAQLVQAEQRNRDLQADNQRLKYEVEALKEKLEHQYAQSYKQVSVLEDDLSQTRAIKEQLHKYVRELEQANDDLERAKRATIVSLEDFEQRLNQAIERNAFLESELDEKESLLVSVQRLKDEARDLRQELAVRERQQEVTRKSAPSSPTLDCEKMDSAVQASLSLPATPVGKGTENSFPSPKAIPNGFGTSPLTPSARISALNIVGDLLRKVGALESKLAACRNFAKDQASRKSYVPGSVNCGVMNSNGPECPRSGRATFFHKGAVNGFDPAPPPPGLGSSRPSSAPGMLPLSV
B2: full-length Nde1 (natural protein, human, UniProt Q9NXR1-2 1-335, looked up)
chain: MEDSGKTFSSEEEEANYWKDLAMTYKQRAENTQEELREFQEGSREYEAELETQLQQIETRNRDLLSENNRLRMELETIKEKFEVQHSEGYRQISALEDDLAQTKAIKDQLQKYIRELEQANDDLERAKRATIMSLEDFEQRLNQAIERNAFLESELDEKENLLESVQRLKDEARDLRQELAVQQKQEKPRTPMPSSVEAERTDTAVQATGSVPSTPIAHRGPSSSLNTPGSFRRGLDDSTGGTPLTPAARISALNIVGDLLRKVGALESKLASCRNLVYDQSPNRTGGPASGRSSKNRDGGERRPSSTSVPLGDKGLDTSCRWLSKSTTRSSSSC
B3: DISC1 322–852 (domain or fragment, mouse, UniProt Q811T9-1 322-852, looked up)
chain: ADAHGWHTLLREWEPMLQDYLLSNRRQLEVTSLILKLQKCQEKVVEDGDYDTAETLRQRLEELEQEKGRLSWALPSQQPALRSFLGYLAAQIQVALHGATQRAGSDDPEAPLEGQLRTTAQDSLPASITRRDWLIREKQRLQKEIEALQARMSALEAKEKRLSQELEEQEVLLRWPGCDLMALVAQMSPGQLQEVSKALGETLTSANQAPFQVEPPETLRSLRERTKSLNLAVRELTAQVCSGEKLCSSLRRRLSDLDTRLPALLEAKMLALSGSCFSTAKELTEEIWALSSEREGLEMFLGRLLALSSRNSRRLGIVKEDHLRCRQDLALQDAAHKTRMKANTVKCMEVLEGQLSSCRCPLLGRVWKADLETCQLLMQSLQLQEAGSSPHAEDEEQVHSTGEAAQTAALAVPRTPHPEEEKSPLQVLQEWDTHSALSPHCAAGPWKEDSHIVSAEVGEKCEAIGVKLLHLEDQLLGAMYSHDEALFQSLQGELQTVKETLQAMILQLQPTKEAGEASASYPTAGAQETEA
B4: DISC1 765–835 (domain or fragment, mouse, UniProt Q811T9-1 765-835, looked up)
chain: GPWKEDSHIVSAEVGEKCEAIGVKLLHLEDQLLGAMYSHDEALFQSLQGELQTVKETLQAMILQLQPTKEA
B5: Ndel1 with the C-terminal half (aa 194–345) truncated (domain or fragment, mouse, UniProt Q9ERR1-1 1-193, looked up)
chain: MDGEDIPDFSSLKEETAYWKELSLKYKQSFQEARDELVEFQEGSRELEAELEAQLVQAEQRNRDLQADNQRLKYEVEALKEKLEHQYAQSYKQVSVLEDDLSQTRAIKEQLHKYVRELEQANDDLERAKRATIVSLEDFEQRLNQAIERNAFLESELDEKESLLVSVQRLKDEARDLRQELAVRERQQEVTRK

How the values were obtained:
[1] = biological target: the molecule itself; assay: SEC-MALS
[2] = biological target: T1, DISC1 765–852; assay: NMR structure
[3] = biological target: B4; assay: ITC
[4] = biological target: B3; assay: ITC
[5] = biological target: B2; assay: ITC
[6] = biological target: the molecule itself; assay: SEC-MALS; remark: listed apart in the source
[7] = biological target: T2, trx-Ndel1 CT-CC; assay: SEC-MALS

B1 was tested, and the “stoichiometry N” value [1] was 2.

GFGTSPLTPSARISALNIVGDLLRKVGALESKLAACRNFAKDQASRK (domain or fragment, mouse, UniProt Q9ERR1-1 238-284, looked up) [Ndel1 CT-CC]: binds [2]; binds [3].

Binder B2 has a Kd [4] of about 40 nM.

In the case of B3, the “stoichiometry N” value [5] is reported as 1.

For B4, the “stoichiometry N” value [6] was 2, the “stoichiometry N” value [7] was 1 and the binding result [5] was “binds”.

STGGTPLTPAARISALNIVGDLLRKVGALESKLASCRNLVYDQSPNRT (domain or fragment, human, UniProt Q9NXR1-2 239-286, looked up) [Nde1 CT-CC]: binds [3].

For B5, the “stoichiometry N” value [1] was 2.
